Reference: US20210246166A1 (Bayer, published 2021)
Bridge positions count the residues as written; N and C are the ends. Square brackets hold non-standard residues; d marks the D form. Primed or numbered codes have the meaning given here. Ends that are not written are not given here. * marks the point of attachment. Tranexamic″ = tranexamic acid, NC[C@H]1CC[C@@H](C(=O)*)CC1; Pro(trans-4-F) = O=C(O)[C@@H]1C[C@@H](F)CN1; Cyclobutylacetic = O=C(CC1CCC1)*; tBuAla = CC(C)(C)C[C@H](N)C(=O)O; Pen = CC(C)(S)[C@H](N)C(=O)O; αMeP = C[C@@]1(C(=O)O)CCCN1; NMeC = CN[C@@H](CS)C(=O)O; Aib = CC(C)(N)C(=O)O; Sar = CNCC(=O)O

T1: Recombinant human MASP1 enzyme (fragment corresponding to amino acids 297-699, C-terminal His Tag) (human, UniProt P48740 297-699)
T1 sequence: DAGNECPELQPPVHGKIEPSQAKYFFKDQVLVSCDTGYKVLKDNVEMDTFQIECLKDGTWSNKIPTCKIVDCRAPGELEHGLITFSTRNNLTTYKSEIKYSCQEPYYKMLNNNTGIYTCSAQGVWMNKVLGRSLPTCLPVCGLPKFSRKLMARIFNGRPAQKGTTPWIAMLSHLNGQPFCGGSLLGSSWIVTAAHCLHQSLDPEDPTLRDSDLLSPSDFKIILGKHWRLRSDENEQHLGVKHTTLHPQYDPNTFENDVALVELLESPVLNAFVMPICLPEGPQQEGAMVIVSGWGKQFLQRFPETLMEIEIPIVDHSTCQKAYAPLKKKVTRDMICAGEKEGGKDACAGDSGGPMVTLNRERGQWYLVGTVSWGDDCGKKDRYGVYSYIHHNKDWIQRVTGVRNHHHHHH

B1: (Cyclobutylacetic)-IC+SRS-((tBu)A)-PPI-(Pen)+IP-NH2 (peptide)
peptide: Cyclobutylacetic-ICSRS[tBuAla]PPI[Pen]IP-NH2
modifications: disulfide 2-10
SMILES: CC[C@H](C)[C@H](NC(=O)CC1CCC1)C(=O)N[C@H]1CSSC(C)(C)[C@@H](C(=O)N[C@H](C(=O)N2CCC[C@H]2C(N)=O)[C@@H](C)CC)NC(=O)[C@H]([C@@H](C)CC)NC(=O)[C@@H]2CCCN2C(=O)[C@@H]2CCCN2C(=O)[C@H](CC(C)(C)C)NC(=O)[C@H](CO)NC(=O)[C@H](CCCNC(=N)N)NC(=O)[C@H](CO)NC1=O
B2: ((N-Me)G)-IC+TRSLPPIC+IPD-OH (peptide)
peptide: [Sar]ICTRSLPPICIPD-OH
modifications: disulfide 3-11; N-terminus assumed
SMILES: CC[C@H](C)[C@H](NC(=O)CNC)C(=O)N[C@H]1CSSC[C@@H](C(=O)N[C@H](C(=O)N2CCC[C@H]2C(=O)N[C@@H](CC(=O)O)C(=O)O)[C@@H](C)CC)NC(=O)[C@H]([C@@H](C)CC)NC(=O)[C@@H]2CCCN2C(=O)[C@@H]2CCCN2C(=O)[C@H](CC(C)C)NC(=O)[C@H](CO)NC(=O)[C@H](CCCNC(=N)N)NC(=O)[C@H]([C@@H](C)O)NC1=O
B3: ((N-Me)G)-IC+SRSLPP-IC+I-((2-Me)P)-D-OH (peptide)
peptide: [Sar]ICSRSLPPICI[αMeP]D-OH
modifications: disulfide 3-11; N-terminus assumed
SMILES: CC[C@H](C)[C@H](NC(=O)CNC)C(=O)N[C@H]1CSSC[C@@H](C(=O)N[C@H](C(=O)N2CCC[C@@]2(C)C(=O)N[C@@H](CC(=O)O)C(=O)O)[C@@H](C)CC)NC(=O)[C@H]([C@@H](C)CC)NC(=O)[C@@H]2CCCN2C(=O)[C@@H]2CCCN2C(=O)[C@H](CC(C)C)NC(=O)[C@H](CO)NC(=O)[C@H](CCCNC(=N)N)NC(=O)[C@H](CO)NC1=O
B4: (Tranexamic)-IC+SRS-((tBu)A)-PPI-((N-Me)C)+I-NH2 (peptide)
peptide: {Tranexamic″}-ICSRS[tBuAla]PPI[NMeC]I-NH2
modifications: disulfide 2-10
SMILES: CC[C@H](C)[C@H](NC(=O)[C@@H]1CSSC[C@H](NC(=O)[C@@H](NC(=O)[C@H]2CC[C@@H](CN)CC2)[C@@H](C)CC)C(=O)N[C@@H](CO)C(=O)N[C@@H](CCCNC(=N)N)C(=O)N[C@@H](CO)C(=O)N[C@@H](CC(C)(C)C)C(=O)N2CCC[C@H]2C(=O)N2CCC[C@H]2C(=O)N[C@@H]([C@@H](C)CC)C(=O)N1C)C(N)=O
B5: GIC+SRSLPPIC+I-(Aib)-D-OH (peptide)
peptide: GICSRSLPPICI[Aib]D-OH
modifications: disulfide 3-11; N-terminus assumed
SMILES: CC[C@H](C)[C@H](NC(=O)CN)C(=O)N[C@H]1CSSC[C@@H](C(=O)N[C@H](C(=O)NC(C)(C)C(=O)N[C@@H](CC(=O)O)C(=O)O)[C@@H](C)CC)NC(=O)[C@H]([C@@H](C)CC)NC(=O)[C@@H]2CCCN2C(=O)[C@@H]2CCCN2C(=O)[C@H](CC(C)C)NC(=O)[C@H](CO)NC(=O)[C@H](CCCNC(=N)N)NC(=O)[C@H](CO)NC1=O
B6: ((N-Me)G)-IC+SRSLPPIC+I-((trans-4-Fluoro)P)-D-OH (peptide)
peptide: [Sar]ICSRSLPPICI[Pro(trans-4-F)]D-OH
modifications: disulfide 3-11; N-terminus assumed
SMILES: CC[C@H](C)[C@H](NC(=O)CNC)C(=O)N[C@H]1CSSC[C@@H](C(=O)N[C@H](C(=O)N2C[C@H](F)C[C@H]2C(=O)N[C@@H](CC(=O)O)C(=O)O)[C@@H](C)CC)NC(=O)[C@H]([C@@H](C)CC)NC(=O)[C@@H]2CCCN2C(=O)[C@@H]2CCCN2C(=O)[C@H](CC(C)C)NC(=O)[C@H](CO)NC(=O)[C@H](CCCNC(=N)N)NC(=O)[C@H](CO)NC1=O

Tests used:
[1] = target: Recombinant human MASP2 enzyme (fragment corresponding to amino acids 297-686, C-terminal His Tag) (human, UniProt O00187 297-686); test: cell-based or functional assay
Chain of Recombinant human MASP2 enzyme (fragment corresponding to amino acids 297-686, C-terminal His Tag) (O00187 other isoform, or with tags, fused parts or gaps limits assumed): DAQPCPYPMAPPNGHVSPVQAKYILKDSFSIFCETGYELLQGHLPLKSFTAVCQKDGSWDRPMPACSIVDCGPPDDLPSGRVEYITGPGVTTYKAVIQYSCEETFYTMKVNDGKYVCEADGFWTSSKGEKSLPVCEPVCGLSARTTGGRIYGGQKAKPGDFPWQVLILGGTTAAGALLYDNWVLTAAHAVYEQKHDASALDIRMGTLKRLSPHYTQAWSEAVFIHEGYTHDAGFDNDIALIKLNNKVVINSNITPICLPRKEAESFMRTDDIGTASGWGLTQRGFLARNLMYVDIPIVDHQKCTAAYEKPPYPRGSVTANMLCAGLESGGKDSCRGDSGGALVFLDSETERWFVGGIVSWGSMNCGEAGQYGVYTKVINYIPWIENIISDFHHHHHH

[2] = target: T1, Recombinant human MASP1 enzyme …; test: cell-based or functional assay

Row | Binder | human MASP2 IC50 [1] [µM] | human MASP1 IC50 [2] [µM]
1 | B1 | 0.0093 | 0.015
2 | B2 | 6.5 | 0.016
3 | B3 | 0.16 | 0.016
4 | B4 | 0.026 | 0.015
5 | B5 | 0.16 | 0.016
6 | B6 | 0.49 | 0.016
